Laboratory results from patent US9061070B2, “Treating stroke and other diseases without inhibiting N-type calcium channels” (NoNO, Inc., priority 2007, dated 2015).

Molecular target: T1, chemokine CXCR2 (IL-8Rb) (Homo sapiens, UniProt P25025)
T1 sequence (P25025 1-360): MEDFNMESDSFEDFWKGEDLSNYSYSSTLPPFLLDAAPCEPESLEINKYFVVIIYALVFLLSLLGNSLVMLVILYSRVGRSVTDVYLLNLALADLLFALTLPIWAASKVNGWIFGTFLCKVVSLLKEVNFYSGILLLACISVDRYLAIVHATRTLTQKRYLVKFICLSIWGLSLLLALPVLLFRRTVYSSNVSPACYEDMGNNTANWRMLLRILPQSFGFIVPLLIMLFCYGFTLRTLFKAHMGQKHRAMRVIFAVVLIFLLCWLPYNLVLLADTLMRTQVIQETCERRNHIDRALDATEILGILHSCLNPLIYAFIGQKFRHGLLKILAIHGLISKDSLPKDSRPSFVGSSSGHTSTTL
Experiment: Competitive radioligand binding screen, IL-8/IL-8RB
Details: 10 μM peptide

## YGRKKRRQRRRKLSSIESDV [Tat-NR2B9c, reference compound]
  inhibition of IL-8/IL-8RB: 80%
